The text below walks through data of publication PMC6822712.

In test [1] the target is TrkB (human) (human) (UniProt Q16620).
Test [2] has as its target TrkC (human) (human) (UniProt Q16288).
The target in test [3] is TrkC (rat) (rat) (UniProt Q03351).
The target of test [4] is TrkA (human) (human) (UniProt P04629).
In test [5] the target is TrkB (rat) (rat) (UniProt Q63604).
UniProt Q63604, sequence (Q63604 32-821): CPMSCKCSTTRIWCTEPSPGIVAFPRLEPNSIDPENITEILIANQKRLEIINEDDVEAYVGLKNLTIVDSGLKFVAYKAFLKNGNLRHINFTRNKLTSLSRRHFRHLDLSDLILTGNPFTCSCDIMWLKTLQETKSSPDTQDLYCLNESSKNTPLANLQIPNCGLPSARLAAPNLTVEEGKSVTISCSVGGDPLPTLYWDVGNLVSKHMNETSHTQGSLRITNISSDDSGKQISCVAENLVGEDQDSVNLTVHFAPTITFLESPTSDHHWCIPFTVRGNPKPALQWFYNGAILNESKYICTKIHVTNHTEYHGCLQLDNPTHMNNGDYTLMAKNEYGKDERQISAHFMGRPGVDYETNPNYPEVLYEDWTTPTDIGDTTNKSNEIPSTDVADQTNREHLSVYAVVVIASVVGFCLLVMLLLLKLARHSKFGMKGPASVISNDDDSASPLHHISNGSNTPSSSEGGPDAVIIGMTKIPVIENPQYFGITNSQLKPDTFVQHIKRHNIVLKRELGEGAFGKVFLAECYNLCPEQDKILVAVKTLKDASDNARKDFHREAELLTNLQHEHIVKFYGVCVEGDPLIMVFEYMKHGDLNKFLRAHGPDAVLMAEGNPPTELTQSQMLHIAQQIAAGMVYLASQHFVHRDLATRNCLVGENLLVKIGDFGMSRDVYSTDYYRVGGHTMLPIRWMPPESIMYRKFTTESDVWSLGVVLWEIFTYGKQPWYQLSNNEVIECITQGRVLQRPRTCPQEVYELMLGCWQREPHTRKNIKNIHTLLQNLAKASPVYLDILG

UniProt Q03351, sequence (Q03351 32-864): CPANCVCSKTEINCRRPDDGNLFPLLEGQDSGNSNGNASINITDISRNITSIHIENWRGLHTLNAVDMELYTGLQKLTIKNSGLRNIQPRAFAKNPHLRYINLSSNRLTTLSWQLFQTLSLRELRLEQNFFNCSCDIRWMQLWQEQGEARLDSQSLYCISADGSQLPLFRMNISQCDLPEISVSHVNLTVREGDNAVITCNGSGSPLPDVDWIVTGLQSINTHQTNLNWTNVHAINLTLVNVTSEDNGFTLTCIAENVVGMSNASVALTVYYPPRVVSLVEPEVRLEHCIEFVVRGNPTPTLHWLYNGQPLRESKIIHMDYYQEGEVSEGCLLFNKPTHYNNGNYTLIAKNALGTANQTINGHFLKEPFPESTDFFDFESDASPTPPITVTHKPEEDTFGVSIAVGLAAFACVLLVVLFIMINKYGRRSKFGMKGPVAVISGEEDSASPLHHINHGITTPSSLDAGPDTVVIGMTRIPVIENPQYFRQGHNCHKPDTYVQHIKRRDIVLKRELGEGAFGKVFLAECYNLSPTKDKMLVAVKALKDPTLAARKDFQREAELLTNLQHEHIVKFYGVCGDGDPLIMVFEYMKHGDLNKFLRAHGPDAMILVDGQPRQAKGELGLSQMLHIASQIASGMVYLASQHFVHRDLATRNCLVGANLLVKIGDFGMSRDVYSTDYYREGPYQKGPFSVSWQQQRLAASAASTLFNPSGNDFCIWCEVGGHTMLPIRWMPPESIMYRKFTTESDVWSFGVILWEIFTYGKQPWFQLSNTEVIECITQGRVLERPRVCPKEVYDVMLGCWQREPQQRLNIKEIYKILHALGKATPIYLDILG
UniProt Q16620, sequence (Q16620 32-822): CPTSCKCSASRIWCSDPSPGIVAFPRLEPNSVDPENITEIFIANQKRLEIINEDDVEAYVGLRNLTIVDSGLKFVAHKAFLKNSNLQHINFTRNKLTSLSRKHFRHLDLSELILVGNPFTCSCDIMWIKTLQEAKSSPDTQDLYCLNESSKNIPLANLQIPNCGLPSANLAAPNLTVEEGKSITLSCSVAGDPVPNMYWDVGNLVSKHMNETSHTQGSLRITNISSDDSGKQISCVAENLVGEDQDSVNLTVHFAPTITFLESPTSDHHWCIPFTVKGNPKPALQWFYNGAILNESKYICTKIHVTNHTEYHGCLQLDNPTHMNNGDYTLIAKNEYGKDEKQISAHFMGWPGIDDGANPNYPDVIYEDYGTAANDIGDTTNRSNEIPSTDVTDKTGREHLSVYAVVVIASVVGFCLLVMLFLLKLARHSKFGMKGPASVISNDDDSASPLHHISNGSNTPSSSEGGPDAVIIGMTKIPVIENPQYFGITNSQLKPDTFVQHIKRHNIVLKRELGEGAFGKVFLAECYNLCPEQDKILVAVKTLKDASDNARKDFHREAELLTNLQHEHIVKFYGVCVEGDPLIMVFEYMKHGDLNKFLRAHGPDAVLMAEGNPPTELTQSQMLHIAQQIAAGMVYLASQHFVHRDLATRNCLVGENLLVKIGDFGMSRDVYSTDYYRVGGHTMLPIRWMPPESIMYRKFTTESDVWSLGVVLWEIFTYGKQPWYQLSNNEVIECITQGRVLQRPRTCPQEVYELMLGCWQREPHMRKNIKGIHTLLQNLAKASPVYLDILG
UniProt Q16288, sequence (Q16288 32-839): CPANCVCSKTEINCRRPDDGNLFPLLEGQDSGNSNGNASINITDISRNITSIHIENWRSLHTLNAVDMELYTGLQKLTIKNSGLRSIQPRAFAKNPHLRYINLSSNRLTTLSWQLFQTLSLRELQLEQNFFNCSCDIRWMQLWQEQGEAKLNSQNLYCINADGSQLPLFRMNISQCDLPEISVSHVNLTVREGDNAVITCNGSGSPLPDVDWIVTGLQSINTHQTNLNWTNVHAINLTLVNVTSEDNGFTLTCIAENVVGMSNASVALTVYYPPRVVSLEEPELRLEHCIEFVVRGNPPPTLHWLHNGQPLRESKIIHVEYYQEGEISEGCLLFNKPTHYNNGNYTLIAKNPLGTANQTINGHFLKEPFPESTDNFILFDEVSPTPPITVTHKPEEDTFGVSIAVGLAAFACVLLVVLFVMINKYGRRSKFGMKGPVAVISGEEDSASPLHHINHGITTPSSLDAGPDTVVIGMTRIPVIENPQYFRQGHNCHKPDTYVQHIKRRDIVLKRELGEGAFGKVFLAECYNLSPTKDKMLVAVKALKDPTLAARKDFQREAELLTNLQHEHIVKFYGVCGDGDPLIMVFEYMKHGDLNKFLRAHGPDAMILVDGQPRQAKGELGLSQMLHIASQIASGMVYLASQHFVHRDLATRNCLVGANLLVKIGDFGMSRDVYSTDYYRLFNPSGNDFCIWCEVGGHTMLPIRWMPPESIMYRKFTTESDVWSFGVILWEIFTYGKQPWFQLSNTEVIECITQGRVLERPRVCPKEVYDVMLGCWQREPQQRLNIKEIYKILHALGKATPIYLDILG
UniProt P04629, sequence (P04629 33-796): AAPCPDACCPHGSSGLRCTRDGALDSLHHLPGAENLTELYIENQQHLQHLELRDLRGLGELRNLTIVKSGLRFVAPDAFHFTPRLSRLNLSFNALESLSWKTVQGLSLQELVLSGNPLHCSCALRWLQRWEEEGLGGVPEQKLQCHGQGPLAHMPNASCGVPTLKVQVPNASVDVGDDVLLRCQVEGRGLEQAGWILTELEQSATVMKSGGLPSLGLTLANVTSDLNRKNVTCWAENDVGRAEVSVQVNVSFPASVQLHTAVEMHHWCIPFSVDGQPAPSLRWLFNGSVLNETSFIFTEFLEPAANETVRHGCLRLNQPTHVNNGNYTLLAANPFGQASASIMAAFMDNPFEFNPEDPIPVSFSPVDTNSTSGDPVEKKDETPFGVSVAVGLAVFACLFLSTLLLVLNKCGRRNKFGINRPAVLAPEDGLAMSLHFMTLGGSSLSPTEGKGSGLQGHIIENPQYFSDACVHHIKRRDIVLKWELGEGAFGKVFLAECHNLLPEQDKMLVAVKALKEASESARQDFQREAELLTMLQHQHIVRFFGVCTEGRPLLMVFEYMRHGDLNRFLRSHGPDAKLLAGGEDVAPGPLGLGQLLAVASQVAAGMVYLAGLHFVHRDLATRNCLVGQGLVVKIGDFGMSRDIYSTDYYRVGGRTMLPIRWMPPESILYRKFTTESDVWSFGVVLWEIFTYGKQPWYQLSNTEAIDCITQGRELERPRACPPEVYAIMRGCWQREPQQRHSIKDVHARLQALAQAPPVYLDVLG

In test [1], BDNF (ligand) displayed an EC50 of ERK phosphorylation (phospho-ERK AlphaLISA), HEK293 cells stably expressing human TrkB of 0.68 nM and a Max (%) of ERK phosphorylation (phospho-ERK AlphaLISA), relative to 10nM BDNF, HEK293 cells stably expressing human TrkB of 114%. Also, in test [2], the EC50 of ERK phosphorylation (phospho-ERK AlphaLISA), NIH3T3 cells stably expressing human TrkC is 26.8 nM and the Max (%) of ERK phosphorylation (phospho-ERK AlphaLISA), relative to 10nM NT-3, NIH3T3 cells stably expressing human TrkC came out at 104%. Further, in test [3], the EC50 of ERK phosphorylation (phospho-ERK AlphaLISA), NIH3T3 cells stably expressing rat TrkC came to 4.97 nM and the Max (%) of ERK phosphorylation (phospho-ERK AlphaLISA), relative to 10nM NT-3, NIH3T3 cells stably expressing rat TrkC came out at 76.2%. In test [4], the EC50 of ERK phosphorylation (phospho-ERK AlphaLISA), NIH3T3 cells expressing human TrkA; no response was greater than 100 nM. In test [5], this molecule came in with an EC50 of ERK phosphorylation (phospho-ERK AlphaLISA), HEK293 cells stably expressing rat TrkB of 0.19 nM and a Max (%) of ERK phosphorylation (phospho-ERK AlphaLISA), relative to 10nM BDNF, HEK293 cells stably expressing rat TrkB of 104%.

B1: NT-3 (ligand)
chain: YAEHKSHRGEYSVCDSESLWVTDKSSAIDIRGHQVTVLGEIKTGNSPVKQYFYETRCKEARPVKNGCRGIDDKHWNSQCKTSQTYVRALTSENNKLVGWRWIRIDTSCVCALSRKIGRT
For B1, in test [1], the EC50 of ERK phosphorylation (phospho-ERK AlphaLISA), HEK293 cells stably expressing human TrkB was 2.05 nM and the Max (%) of ERK phosphorylation (phospho-ERK AlphaLISA), relative to 10nM BDNF, HEK293 cells stably expressing human TrkB is 58.5%. For the same molecule, in test [2], the EC50 of ERK phosphorylation (phospho-ERK AlphaLISA), NIH3T3 cells stably expressing human TrkC is 0.4 nM and the Max (%) of ERK phosphorylation (phospho-ERK AlphaLISA), relative to 10nM NT-3, NIH3T3 cells stably expressing human TrkC is 106%. In test [3], the EC50 of ERK phosphorylation (phospho-ERK AlphaLISA), NIH3T3 cells stably expressing rat TrkC was found to be 0.21 nM and the Max (%) of ERK phosphorylation (phospho-ERK AlphaLISA), relative to 10nM NT-3, NIH3T3 cells stably expressing rat TrkC is 103%. For the same molecule, in test [4], the EC50 of ERK phosphorylation (phospho-ERK AlphaLISA), NIH3T3 cells expressing human TrkA was 4.35 nM and the Max (%) of ERK phosphorylation (phospho-ERK AlphaLISA), NIH3T3 cells expressing human TrkA was found to be 73.6%. In test [5], the EC50 of ERK phosphorylation (phospho-ERK AlphaLISA), HEK293 cells stably expressing rat TrkB was found to be 10.7 nM and the Max (%) of ERK phosphorylation (phospho-ERK AlphaLISA), relative to 10nM BDNF, HEK293 cells stably expressing rat TrkB amounted to 83%.
